Measurements from patent publication US7097982 (IMMUNOGEN, dated 2006).

Experiments:
[1] = biological target: GST-PEM bacterially-expressed fusion protein (Bak residues 58-103 fused to GST) (UniProt P08515 1-218 = GST; Q16611 58-103); experiment: GST pull-down of in vitro translated 35S labeled protein
Flag tag-Bcl-xL = biological target: T1, Flag tag-Bcl-xL (UniProt Q07817 1-233); experiment: co-immunoprecipitation from transfected COS cells (summarised in FIG. 6)
T1 construct: Expressed in transfected COS cells; also called Flag-Bcl-xL

[2] = biological target: GST alone (purified, bacterially expressed) (UniProt P08515 1-218 = GST); experiment: GST pull-down on glutathione-agarose, autoradiography
Chain of GST alone (purified, bacterially expressed) (P08515 whole entry): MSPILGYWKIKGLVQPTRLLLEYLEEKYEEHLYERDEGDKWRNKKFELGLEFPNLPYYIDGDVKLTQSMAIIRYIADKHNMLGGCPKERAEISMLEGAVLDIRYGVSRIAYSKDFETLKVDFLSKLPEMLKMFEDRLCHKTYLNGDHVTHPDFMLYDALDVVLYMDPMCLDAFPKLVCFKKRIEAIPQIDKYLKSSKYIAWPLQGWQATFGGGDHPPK

T1 sequence (Q07817 whole entry): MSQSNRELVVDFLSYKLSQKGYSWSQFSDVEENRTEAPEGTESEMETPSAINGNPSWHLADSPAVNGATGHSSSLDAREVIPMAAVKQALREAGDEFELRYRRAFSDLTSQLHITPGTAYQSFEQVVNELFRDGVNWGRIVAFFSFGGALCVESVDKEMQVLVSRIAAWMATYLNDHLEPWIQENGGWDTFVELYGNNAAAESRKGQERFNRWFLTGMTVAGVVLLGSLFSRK
Chain of GST-PEM bacterially-expressed fusion protein (Bak residues 58-103 fused to GST) (P08515 1-218, tags or fused parts left off): as the sequence (P08515 whole entry) above

Binder | binding result (Flag tag-Bcl-xL) | further results
Bip1a (other, UniProt Q13323 1-160, looked up, Used in vitro translated and 35S labeled, and expressed in transfected COS cells; also called in vitro translated, 35S labeled Bip1a) MSEVRPLSRDILMETLLYEQLLEPPTMEVLGMTDSEEDLDPMEDFDSLECMEGSDALALRLACIGDEMDVSLRAPRLAQLSEVAMHSLGLAFIYDQTEDIRDVLRSFMDGFTTLKENIMRFWRSPNPGSWVSCEQVLLALLLLLALLLPLLSGGLHLLLK |  | binding result [1]: no binding
Bax ΔGD mutant (other, UniProt Q07812 1-192, looked up) MDGSGEQPRGGGPTSSEQIMKTGALLLQGFIQDRAGRMGGEAPELALDPVPQDASTKKMELQRMIAAVDTDSPREVFFRVAADMFSDGNFNWGRVVALFYFASKLVLKALCTKVPELIRTIMGWTLDFLRERLLGWIQDQGGWDGLLSYFGTPTWQTVTIFVAGVLTASLTIWKKMG | no binding | 
Bak, in vitro translated, 35S-methionine labeled (other, UniProt Q16611 1-211, looked up, 35S-methionine label, also called 35S labeled in vitro translated Bak; 35Met-labeled Bak) MASGQGPGPPRQECGEPALPSASEEQVAQDTEEVFRSYVFYRHQQEQEAEGVAAPADPEMVTLPLQPSSTMGQVGRQLAIIGDDINRRYDSEFQTMLQHLQPTAENAYEYFTKIATSLFESGINWGRVVALLGFGYRLALHVYQHGLTGFLGQVTRFVVDFMLHHCIARWIAQRGGWVAALNLGNGPILNVLVVLGVVLLGQFVVRRFFKS |  | binding result [2]: no binding
Bip1a ΔGD mutant (other, UniProt Q13323 1-160, looked up) MSEVRPLSRDILMETLLYEQLLEPPTMEVLGMTDSEEDLDPMEDFDSLECMEGSDALRAPRLAQLSEVAMHSLGLAFIYDQTEDIRDVLRSFMDGFTTLKENIMRFWRSPNPGSWVSCEQVLLALLLLLALLLPLLSGGLHLLLK | no binding | 
